{"source": "paper PMC4321490", "about": "“Structural analysis of DNA binding by C.Csp231I, a member of a novel class of R-M controller proteins regulating gene expression”", "molecules": {"B1": {"name": "OL 21-mer (dsDNA)", "DNA 1": "ACACTAAGGAAAACTTAGTAA", "DNA 2": "TTACTAAGTTTTCCTTAGTGT"}, "B2": {"name": "54-3 (spacer randomized) (dsDNA)", "DNA 1": "ACACTAAGGAAAACTTAGTAACTGCATGCTACCAAACTAAGAAAATCTTAGCAA", "DNA 2": "TTGCTAAGATTTTCTTAGTTTGGTAGCATGCAGTTACTAAGTTTTCCTTAGTGT"}, "B3": {"name": "48-1 (6 bp spacer deletion) (dsDNA)", "DNA 1": "ACACTAAGGAAAACTTAGTAAAATTTTAAACTAAGAAAATCTTAGCAA", "DNA 2": "TTGCTAAGATTTTCTTAGTTTAAAATTTTACTAAGTTTTCCTTAGTGT"}, "B4": {"name": "54-1 (native OL+OR) (dsDNA)", "DNA 1": "ACACTAAGGAAAACTTAGTAAAATTGCTTTTTTAAACTAAGAAAATCTTAGCAA", "DNA 2": "TTGCTAAGATTTTCTTAGTTTAAAAAAGCAATTTTACTAAGTTTTCCTTAGTGT"}, "B5": {"name": "54-2 (OR randomized) (dsDNA)", "DNA 1": "ACACTAAGGAAAACTTAGTAAAATTGCTTTTTTAAATAAGACTCGTTAAAAAAC", "DNA 2": "GTTTTTTAACGAGTCTTATTTAAAAAAGCAATTTTACTAAGTTTTCCTTAGTGT"}}, "key": {"[1]": {"target": "C.Csp231I controller protein (Citrobacter sp. RFL231)", "experiment": "crystal structure; C.Csp231I in complex with 21 bp OL or OR operator DNA duplexes; three crystal forms (P6(1) OL 2.30 Å, C2 OL 2.75 Å, P6(1) OR 1.80 Å); subunits within one protein dimer"}, "[2]": {"target": "T1, C.Csp231I (Citrobacter sp. RFL231, UniProt Q32WH4 1-98)", "T1 sequence": "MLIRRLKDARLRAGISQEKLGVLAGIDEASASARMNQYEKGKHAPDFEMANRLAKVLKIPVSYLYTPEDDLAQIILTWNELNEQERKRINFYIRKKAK", "experiment": "crystal structure; C2 form, 2.75 A, two complexes per asymmetric unit; EMSA: 10 mM Tris-HCl pH 8.0, 0.1 M NaCl, 1 mM EDTA, room temperature 30 min, 2 uM DNA, 6.5% native PAGE in 0.25x TBE; AUC: same buffer, 20 C", "settings": "protein: recombinant; chain copies: 2"}, "[3]": {"target": "T2, C.Csp231I (two dimers) (Citrobacter sp. RFL231, UniProt Q32WH4 1-98)", "T2 sequence": "T1 sequence", "experiment": "EMSA; little effect of spacer mutation; 2 uM DNA; EMSA: 10 mM Tris-HCl pH 8.0, 0.1 M NaCl, 1 mM EDTA, room temperature 30 min, 2 uM DNA, 6.5% native PAGE in 0.25x TBE; AUC: same buffer, 20 C", "settings": "protein: recombinant; chain copies: 4"}, "[4]": {"target": "T1, C.Csp231I", "experiment": "EMSA; one dimer binds; 2 uM DNA; EMSA: 10 mM Tris-HCl pH 8.0, 0.1 M NaCl, 1 mM EDTA, room temperature 30 min, 2 uM DNA, 6.5% native PAGE in 0.25x TBE; AUC: same buffer, 20 C", "settings": "protein: recombinant; chain copies: 2"}, "[5]": {"target": "T2, C.Csp231I (two dimers)", "experiment": "EMSA; larger complex at 4:1 and above; 2 uM DNA; EMSA: 10 mM Tris-HCl pH 8.0, 0.1 M NaCl, 1 mM EDTA, room temperature 30 min, 2 uM DNA, 6.5% native PAGE in 0.25x TBE; AUC: same buffer, 20 C", "settings": "protein: recombinant; chain copies: 4"}, "[6]": {"target": "T1, C.Csp231I", "experiment": "EMSA; single complex up to 2:1 subunits per duplex; 2 uM DNA; EMSA: 10 mM Tris-HCl pH 8.0, 0.1 M NaCl, 1 mM EDTA, room temperature 30 min, 2 uM DNA, 6.5% native PAGE in 0.25x TBE; AUC: same buffer, 20 C", "settings": "protein: recombinant; chain copies: 2"}, "[7]": {"target": "T1, C.Csp231I", "experiment": "EMSA; single dimer at the OL site; 2 uM DNA; EMSA: 10 mM Tris-HCl pH 8.0, 0.1 M NaCl, 1 mM EDTA, room temperature 30 min, 2 uM DNA, 6.5% native PAGE in 0.25x TBE; AUC: same buffer, 20 C", "settings": "protein: recombinant; chain copies: 2"}}}
{"molecule": "C.Csp231I controller protein (natural protein)", "values": [{"measurement": "stoichiometry N", "setting": "[1]", "result": 2}]}
{"molecule": "B1", "values": [{"measurement": "binding result", "setting": "[2]", "result": "binds"}]}
{"molecule": "B2", "values": [{"measurement": "binding result", "setting": "[3]", "result": "binds"}]}
{"molecule": "B3", "values": [{"measurement": "binding result", "setting": "[4]", "result": "binds"}]}
{"molecule": "B4", "values": [{"measurement": "binding result", "setting": "[5]", "result": "binds"}, {"measurement": "binding result", "setting": "[6]", "result": "binds"}]}
{"molecule": "B5", "values": [{"measurement": "binding result", "setting": "[7]", "result": "binds"}]}
